T1: BmERR DBD (Bombyx mori, UniProt A0A1B1M0R7 103-178)
T1 sequence: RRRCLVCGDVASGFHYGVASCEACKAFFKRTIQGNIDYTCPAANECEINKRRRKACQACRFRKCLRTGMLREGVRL

B1: Tret1 CRE1 (dsDNA)
DNA 1: AGCTTCTCCTTGACGTGTAG
DNA 2: CTACACGTCAAGGAGAAGCT
B2: Tret1 CRE2 (dsDNA)
DNA 1: TTTTTGTAACCTTAAACTCCT
DNA 2: AGGAGTTTAAGGTTACAAAAA
B3: Tret1 CRE3 (dsDNA)
DNA 1: GCGGACTCACAAGGTCCTACCA
DNA 2: TGGTAGGACCTTGTGAGTCCGC
B4: Ca7 CRE1 (dsDNA)
DNA 1: TAATGTGACTTTGAATCG
DNA 2: CGATTCAAAGTCACATTA
B5: Akr2e CRE2 (dsDNA)
DNA 1: ACTAGTTAAGGTTACGCTGA
DNA 2: TCAGCGTAACCTTAACTAGT
B6: Atgl CRE3 (dsDNA)
DNA 1: CGCTCTGACATTGAAAAG
DNA 2: CTTTTCAATGTCAGAGCG
B7: Ca7 CRE2 (dsDNA)
DNA 1: TTTATTGCCCTTGTAGGC
DNA 2: GCCTACAAGGGCAATAAA
B8: HPD CRE2 (dsDNA)
DNA 1: GGACTATAACCTCGTCTCTT
DNA 2: AAGAGACGAGGTTATAGTCC
B9: GK CRE1 (dsDNA)
DNA 1: CCCCATGACCTTCGCCGG
DNA 2: CCGGCGAAGGTCATGGGG
B10: HPD CRE3 (dsDNA)
DNA 1: TCCACAAACGTCAATAGC
DNA 2: GCTATTGACGTTTGTGGA
B11: Acyl CRE1 (dsDNA)
DNA 1: TATATTGCCCTTGTAAGT
DNA 2: ACTTACAAGGGCAATATA
B12: Ca7 CRE4 (dsDNA)
DNA 1: ATTCAATAGGTTATTTCT
DNA 2: AGAAATAACCTATTGAAT
B13: Chsy1 CRE1 (dsDNA)
DNA 1: TCTCACAAGGTTGATGTC
DNA 2: GACATCAACCTTGTGAGA
B14: HPD CRE1 (dsDNA)
DNA 1: ACACGCGCCCTTTATATA
DNA 2: TATATAAAGGGCGCGTGT
B15: UGT33D8 CRE2 (dsDNA)
DNA 1: TCAGGCAAGGTCAAAGCC
DNA 2: GGCTTTGACCTTGCCTGA
B16: UGT46A2 CRE2 (dsDNA)
DNA 1: TCGTCGTAACCTTAAAGATA
DNA 2: TATCTTTAAGGTTACGACGA
B17: GK CRE3 (dsDNA)
DNA 1: GATTGTCAATGTCAATGTCATGAACA
DNA 2: TGTTCATGACATTGACATTGACAATC
B18: TPS CRE3 (dsDNA)
DNA 1: GGCTGTAACCTTGTCCTC
DNA 2: GAGGACAAGGTTACAGCC
B19: Aldh1b1 CRE3 (dsDNA)
DNA 1: CCTGGTTAAGGTTAGAAGTC
DNA 2: GACTTCTAACCTTAACCAGG
B20: FAH CRE1 (dsDNA)
DNA 1: TTTTTCCAAGGACGTTTGAG
DNA 2: CTCAAACGTCCTTGGAAAAA
B21: Ca7 CRE3 (dsDNA)
DNA 1: GACTTCGAATGTCATGTCGC
DNA 2: GCGACATGACATTCGAAGTC
B22: GlyP CRE3 (dsDNA)
DNA 1: ACGTCCAACGTCAAACCA
DNA 2: TGGTTTGACGTTGGACGT

This is an account of results in paper PMC12112554, “Estrogen-Related Receptor Potential Target Genes in Silkworm (Bombyx mori): Insights into Metabolic Regulation”.

The first data set deals with T1, BmERR DBD. Nature of the data set: EMSA; not among Table 2 motifs; EMSA, Beyotime kit buffer (composition not given), 25 °C 25 min; 5% native PAGE in 1x TBE (45 mM Tris-borate, 1 mM EDTA, pH 8.3). Particulars: protein: recombinant; label: biotin 3'; blunt. A general note: In EMSA bound probe runs differently from free probe, usually more slowly.
On to B1, for which the binding result was “binds”. As to B2, the binding result is recorded as “binds”.

The target in a further data set is T1, BmERR DBD. The experiment in a line: EMSA; listed in Table 2; text names only CRE1 and CRE2; EMSA, Beyotime kit buffer (composition not given), 25 °C 25 min; 5% native PAGE in 1x TBE (45 mM Tris-borate, 1 mM EDTA, pH 8.3). The following applies: protein: recombinant; label: biotin 3'; blunt.
In the case of B3, the binding result is on record as “binds”.

A further data set deals with T1, BmERR DBD. The experiment in a line: EMSA; EMSA, Beyotime kit buffer (composition not given), 25 °C 25 min; 5% native PAGE in 1x TBE (45 mM Tris-borate, 1 mM EDTA, pH 8.3). The following applies: protein: recombinant; label: biotin 3'; blunt.
B4: the binding result is listed as “binds”. For the molecule B5, the binding result was “binds”. In the case of B6, the binding result is reported as “binds”. Take B7: the binding result is listed as “binds”.

For B8, the binding result was “binds”.

For B9, the binding result is “binds”. Turning to B10, the binding result was “binds”. The same measure, in the same setting: the entry for B11 is “binds”; for B12 it is “binds”. Same read-out and setting: next, B13: “binds”; B14: “binds”. On the same count and under the same terms, next, B15: “binds”; B16: “binds”. Consider B17, for which the binding result is given as “binds”.

Consider B18, for which the binding result is given as “binds”. On the same count and under the same terms, the entry for B19 is “binds”; for B20 it is “binds”; for B21 it is “binds”. With B22, the binding result was “binds”.
